Data on two substances can be found in patent publication US10435480.

Several values for one entry are separate records, joined by “and”; a condition that tells them apart may be missing. Equal values may be shown once.

One test deals with OMP0 (E. coli) (UniProt P0A910). Briefly: M2 anti-FLAG-AP 1:1000 and PNPP on OMP0 treated PLA disc.
The target in test [1] is Rabbit anti-mouse IgG-AP conjugate (Sigma Cat. No. A3688) (rabbit). Briefly: control without mouse IgG: conjugate only (1/5000) on OMP18, hydrophilic plate.
Test [2] concerns the target Mouse IgG (Sigma Cat No. 15381) (mouse). Briefly: immunoassay, OMP18 adsorbed on hydrophilic plate, mouse IgG 2 ug/mL, anti-mouse IgG-AP and PNPP; well 2.
For test [3] the target is unchanged. Briefly: immunoassay, OMP18 adsorbed on hydrophilic plate, mouse IgG 2 ug/mL, anti-mouse IgG-AP and PNPP; well 1.
Test [4] has the same target. Briefly: immunoassay, OMP18 adsorbed on hydrophobic plate, mouse IgG 2 ug/mL, anti-mouse IgG-AP and PNPP; well 1.
For test [5] the target is unchanged. Briefly: immunoassay, OMP18 adsorbed on hydrophobic plate, mouse IgG 2 ug/mL, anti-mouse IgG-AP and PNPP; well 2.
Test [6] concerns the target Rabbit anti-mouse IgG-AP conjugate (Sigma Cat. No. A3688) (rabbit). Briefly: control without mouse IgG: conjugate only (1/5000) on OMP18, hydrophobic plate.

Regarding “M2 anti-FLAG alkaline phosphatase conjugated antibody (Sigma Cat No. A9469)”, the Absorbance at 405 nm with OMP0 (E. coli) is 0.312 A405 and 0.361 A405 and 0.374 A405.
As for “OMP18 (from UniProt P38507 212-269; P38507 212-269)”, the A405 is 0.027 A405 in test [1]; 2.23 A405 in test [2]; 2.24 A405 in test [3]; 2.39 A405 in test [4]; 2.33 A405 in test [5]; 0.056 A405 in test [6].
